Experimental data from publication PMC10570038.

Target: RBPMS-A dC20 (rat) (UniProt A0A8I6G705)
Test: EMSA
Conditions: apparent; EMSA: 10 nM RNA, 25 mM HEPES pH 7.9, 100 mM KCl, 2 mM MgCl2, 0.625 mM DTT, 0.1 mg/ml BSA, 5% glycerol, 30 C 1 h, then 5 mg/ml heparin 10 min; 5% native PAGE in …

Chain of RBPMS-A dC20 (rat) (A0A8I6G705 1-177): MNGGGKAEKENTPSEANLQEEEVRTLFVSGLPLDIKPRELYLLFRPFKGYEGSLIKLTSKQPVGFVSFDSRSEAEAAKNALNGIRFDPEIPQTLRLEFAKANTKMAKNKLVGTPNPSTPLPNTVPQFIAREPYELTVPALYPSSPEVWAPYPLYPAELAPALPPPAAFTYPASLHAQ

Q: Which Kd does the source give for “GUCUACGCACCCUCAACCCGCACCUUGCGGGAUG [(CAC)2]” here?
A: The Kd was 2500 nM.
